assay: soluble fraction after stress (log2 fold change); higher = more stays soluble; pooled small domains, quantitative proteomics; conditions: stress: 75 degC
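Note: 20 min heating vs room temperature control held 20 min.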

Row | Sequence | soluble fraction (log2)
1 | HMNEQKVSSLLTPRQLAFIDEYLIDFNGAQAAIRAGYSHKTAGPQAARLLVNVNISRMIAERIEARNK | -2.5
2 | HMNEQVAVVSGSQVNVRSGPGTTSAVVGQVSKGDNLPVLNQSGDWYQIKLPGGNAGWVAGWLVSLRPTT | 0.0105
3 | HMNESPVLAVLTPTERKVASLVAEGLTNQAIAARMILAEGTVKNHVSTLLHKLQAPDRTALALTLYKAFQ | -1.3
4 | HMNETRVDQAADLLLALLEKEPKSAAEILDEFEQAGFSKSGLYRAKDALGVVSIRKEGRWVWSLPHSLD | 0.438
5 | HMNEYIVSAEQEGMRLDVFLTEQMEGSRSYIQSLIKGGHVTVGDKVGKANLRLTPDTVIHVEIPEPE | 0.0133
6 | HMNEYLPEAVQKLLEVMEYDIPYTSNELMERLGLKAKEGFRRNYLHPAMEMKLIQMTIPDKPNSRNQRYLR | -2.13
7 | HMNFHLEHHIAELLYRSIRGELSDFERQELNQWRSDSPMHETLFMRLQDDEYIDEELGVFIK | -2.76
8 | HMNFKNMIDSLSGILFKKDPSAAIIDIGGVRLKVFITVGSYEQLPAKGEQVEILTYLHVKEDILNLYG | -1.85
9 | HMNFMDGFQSFFQESGAMNRPMTADVVSYRLPDGTVQQGNSTMRGLMDQYLKSIGQSPTTGVP | 0.0171
10 | HMNFRESVLAVFENSKQKYLDFDEIAKRLGLTRGFDRQALASMLNELTRNDEIVFTKRNKYTLPEN | -0.524
11 | HMNGAVAEQARKQLMAALKASEFIAEEKLDEWLDALALPEDKRTAIVDAVDELDYEEAISELEN | 0.429
12 | HMNGDYFEYRYAVNGSRSTPPSLSKTSRNPSGWSTTVPTVGNLQYLWFTVAKINGETNSLIQNWSTPARQT | -1.88
13 | HMNGEAQTMYVTARTLNVRKGPGTSYAKAGTLSRGTAVQVVGFSGNWAKLSNGYYVSTSYLAKI | -4.25
14 | HMNGKWKLRIIKELLHSNIRFGQILKNIPDISPKVLSQQLKEMEEDGIIERIVISEMPPNVEYVLTDMGE | -1.66
15 | HMNGLNISYRMDGENVVETIVFPDATMIRTIAPNGVMTIKTIEDGSVSTSELKADYKLYKKIYESQY | -0.748
16 | HMNGSVLVTGGSVWIRAGASKETDGLGIVHKGDVLKRSGSDASGWRGVVYEGQNAFISAKYSSI | -0.89
17 | HMNGTEAIRRYIDQFASKHATTPRMLKLNERKQLIQELKNNGLLEIKKAVETVAQHLGISRASAYLYVKE | -1.52
18 | HMNGVPDMSPVPEGARNSTLHAWAFGRLKNHPDNETGIREDLFRRGHASGLQDAELDQIWKSIKRTL | 0.00545
19 | HMNGVSNETLIQKSALYEELNQPDLALKMINTALKKDSVNIEILHRLVTLLMSQEKNEEAILYNQKIIDH | 0.0902
20 | HMNHSITLTERKNLLITGVKKIENFDKEEFLIETTMGFLVVKGDGLELIKLDTISGNVSIKGIVNGFTYID | 0.15
21 | HMNIAAVIGQTGVLQDDLKAGEQGTVKADNKLWTAVLAEGEEAVKKEERVDIVAVEGVKLIVRRNI | 0.663
22 | HMNIDEIFLTKNEIYFSFEYQKKSQLDRYSKIISLDHRIDKNTAYAYANKKQFLNFINLNIDYKIIDNSF | -2.87
23 | HMNIDEIIGKKAVVIESIDNLQGTGKVRYQGMEWTARAEEENDRIEKDAEVEIIAVKGVKLIVKMK | -0.384
24 | HMNIDNTWQPSEDVVEILTRSGINEDFINELIPEFIVYWTERPGTLVSYNSKFIEHVRLKWAQHSAEI | -0.375
25 | HMNIDVAAEKQQLGPNADQIVKGTVTWMQGLVAKGIWSETDFEEGKIFTATADGINAINKIRRYYGEQT | 0.0956
26 | HMNIEDFKDKVKELKQYTYQELVEDVKLKTDRADVILPASKIYLEAMQQAKVDSIIVPKVGLAEGVAR | -0.012
27 | HMNIEEQVVAEVLVKDFMKQLTPRDIHILELRKNGYTYQEIAGQLGYHTHSAVKKRVDRLAEQWLAYTQGH | -2.26
28 | HMNIFAHQIGKLRTERHLSQTDVAKRLYVSRQAVSKWENGDAEPSLDNLIALAKLFNVSLDNLITGQ | -1.78

Row | Sequence | soluble fraction (log2)
29 | HMNIGVEQIEQMERGALITLWQELIDKPLPRHMSIVFLRQVLAFEVQSKQNGGLPRGFITLLNKQAD | -0.826
30 | HMNIKITKSKNSEHYSIIYNTKINGKRTSKIYENIGNFEKLKLRAGEQEPIEWLKNYVSELNKKQKEDT | 0.11
31 | HMNIKYDFPTNSPLEMMRNLFDSNSQIINDLKDGFAMANSLNEQGLANFFAERIDKHQFWSWQLSASL | -0.201
32 | HMNILDPTVMKNILDKNHEEFIAIYESAPLGQKTIINSMVFDKRLNGENVDANILMYLQNKTNIDYINIEP | -0.536
33 | HMNILNYIIENENQEVRVDKFLSDTIEDMSRSSVASIIEDGGLLVNDKLQNKKYKLKIGDKVQFTVPDPV | 0.0982
34 | HMNILVAISDTGEIWINKRRVDARAVQANIERLHAENPQGTVVIQADKQATTETLIKVMDASRAAGVFDVS | -0.691
35 | HMNINLDINTYTVKELEKLLKLEVPYSDNNVFEKKNLMVKMIQTSTIAETKKEELYIFLDNIYNRLTNNLE | -1.59
36 | HMNISLGALVTITDQKGRSHTVTLESGKQFFTNHGSINHDEIIKAGEGGVVASSSGMLYTIFTP | -0.924
37 | HMNISRESLIGQILATLNKNPEEGFNYKQIAKRLNITDSPGRQMISDLLRELSKHGSLQEISHGKYKIKV | -0.237
38 | HMNITHEINVKSKSKIDFLENNKNLAQFFLTKNPNQFNYNLVFSDKSELNIIKEKIESHKDIEDIDIRYG | -0.0863
39 | HMNIVINVDTPTFEQMKATYQAPGTLPAGASFHAKLKGVTVTGYTKSHKVMFQGALANQEAARWQ | -1.88
40 | HMNIYFNIEDAVANAVVENGKMSAAIYEKNVDTGEVAKLAEVSMPVMGGNINITKTLLTKALISQLP | -0.71
41 | HMNKAYLTVADMKKDKSLKNGDVVRTLGYYGYNDGDGAVYQIKDSHPEDYHIRLDNGLDAEQINY | 0.185
42 | HMNKEHINLDSSKFLSLLNKTKISMSNDETRHYLNGIYIHPTVSNKSSYLTGVATDSHRLSSSSIPVD | -0.366
43 | HMNKMIIELGEKLKALRTENHLRQDQVARLVNVEKSSISMYETGMRQPSYTTLVRLADVFNVTTDYLLGRK | -2.37
44 | HMNKPTSMYKLRLLLKHYHAGASKRWMADVLDISRSTLNVYLARIESLNLAFEEWEALSDLEVSRLLINP | -3.22
45 | HMNKVAQFYRELVSTLSERLRNGERDIDALVEQARVRISQSGELTQSEIENVIRAVRRDLEEFALSYEE | -0.0274
46 | HMNLAISAYQQLKSDIIRGVYAPGEKLLMSRLKVRYGLGIGPMREALSQLVSEHLVTAASQRGYRVAGM | -1.79
47 | HMNLAPLLTEYVQINFRRASEMKTYLEQANLISERGFLLADDQTNILMVRETGASIEEIRRTLNRF | -1.92
48 | HMNLFKAPMPGLIRTIVVAEGQEVKKGDVILILEAMKMENALKSPADLVVKSIKVQQGQAVEKNQLLIEF | -2.44
49 | HMNLGNLLKIYRKNSLLTQQQVADALNINRTTYTYYETGKTEPSIDTLHKLIKIFGITYDDLL | -2.88
50 | HMNLKDINLNVRHYKIIDFVREHGYASIETLTRQFGVSAQTVRRDIIYLDNQAVLKRHHGGVGTLPG | -1.97
51 | HMNLPTSGVDALTPAERRVARMAGDGQSNREIAQTLFVTRKTVEIHLTSVYRKLGIASRAELSARL | -2.68
52 | HMNLQGIISQKAIVTQTIEPYETGVAKLNGEEWTAMSKDETRIEAGKLVEVVAIEGVKLIVKEVS | -0.311
53 | HMNLVELKHAEEFNTLIIQDIGGRMKPAHTLASELVRKVFHNDDFNGIDPRKVFLSIIENSKVWFNVPFI | 0.0116
54 | HMNLYENLATHVKNAIRQGVYQPGDRLPSVRRLSEQHRVSQNTAVSAYRLLESHGWLEARPQSGFFARHP | -1.42
55 | HMNLYERFPIHELWKETFNETLDEEEHITFITSEFKPENIVLGQGFIAAPSKKDAVDWLKVIRTVLIFYDS | -2.37

From the domain aggregation screens of Martell et al. (2025)
